According to the Human Domainome abundance scans (Beltran et al. 2025):

B1: Chromodomain-helicase-DNA-binding protein 4, residues 444 to 496; numbered along this chain, Q14839 (parent)
chain: EDDHHMEFCRVCKDGGELLCCDTCPSSYHIHCLNPPLPEIPNGEWLCPRCTCP

Variants of: B1
Assay: abundance fitness (aPCA) (normalised: wild type 0, dead -1); higher = more abundant; growth selection in yeast, the domain comes from the species named
Details: Homo sapiens

Abundance fitness of substitutions, site by site:
H4: Y 0.078, L -0.162, S -0.409, N 0.197, R -0.04, F 0.301, I 0.025, V -0.008, T -0.004, P -0.294, M 0.107, Q -0.058, W -0.126, E -0.126, K 0.119
L19: D -0.354, H -0.189, V -0.056, G -0.488, C -0.075, K -0.033, S -0.291, N -0.116, Y -0.276, I 0.1, Q -0.157, P -0.484, E -0.632, F -0.262, A 0.118, M 0.041, R -0.314, T 0.037
L18: E -0.744, D -1.3, N -0.489, H -0.66, S -0.717, T -0.373, P -1.07, R -0.394, A -0.682, Q -0.397, W -0.738, G -0.732, C -0.761, M 0.037, V -0.117, Y -0.751, F -0.581, I -0.357, K -0.517
E7: M -0.433, N -0.664, L -0.121, H -0.22, P -0.401, W -0.599, S -0.364, Q -0.224, G -0.239, K -0.492, C -0.15, A -0.366, T -0.618, F -0.002, I -0.481, D -0.048, R -0.174, V -0.205, Y -0.813
M6: R -0.477, S -0.147, Q -0.508, N -0.055, G -0.056, A 0.023, F -0.204, L -0.665, T 0.028, H -0.713, W -0.231, I -0.021, D 0.023, C -0.207
V11: T -0.019, A -0.316, F -0.359, P -0.877, Q -0.037, N -0.104, C -0.255, D -0.103, W -0.209, R 0.012, G -0.135, M -0.026, S -0.159, L -0.214, Y -0.377, I -0.074
K13: S -0.101, E 0.214, F -0.267, L -0.129, C -0.126, N -0.199, T -0.134, Q -0.024, W -0.139, P -1.08, V -0.303, Y -0.375, M -0.2, A 0.085, H -0.286, G -0.01, D -0.243, R -0.087
F8: R -0.033, W -0.041, G 0.086, T -0.091, A -0.103, M -0.073, N -0.044, V 0.012, C -0.048, H -0.249, L -0.164, S -0.124, I -0.019, K -0.103, E 0.138, P -0.388, D -0.166
H5: P -0.11, Q 0.074, M -0.12, G 0.106, W 0.02, T 0.019, V -0.135, L -0.305, I 0.165, F 0.219, Y 0.097, N -0.006, R 0.096, E 0.116, K 0.199, C 0.068, S -0.129, A 0.092
C9: H -0.79, P -0.797, D -0.601, A -0.777, R -0.571, Y -0.979, V -0.988, N -0.689, G -0.535, Q -0.668, W -0.844, S -0.849, E -0.483, I -0.827, M -0.98, K -0.54, T -0.815
E17: H -0.906, A -0.309, F -0.395, L -0.535, D -0.232, G -0.289, R -0.123, P -0.657, M -0.098, W -0.576, C -0.382, S -0.184, I -0.206, N -0.077, Y -0.644, Q -0.146, T 0.015, K 0.117, V -0.215
G15: F -0.263, L -0.486, D -0.274, T 0.012, Q -0.126, W -0.317, P -0.154, Y -0.251, M -0.102, C -0.508, E 0.057, S -0.061, I -0.397, K 0.08, N -0.179, V -0.115
C20: S 0.093, Y 0.066, P 0.096, K 0.095, E 0.136, R 0.13, H 0.168, D 0.012, G 0.083, A 0.099, V -0.035, I 0.103, N 0.14, Q 0.17, W 0.069, M 0.017, F -0.035, L 0.012
R10: H -0.137, L -0.021, D -0.142, V -0.056, A -0.17, Q 0.086, N 0.003, I -0.014, T 0.028, W 0.122, P -0.274, C 0.003, Y -0.009, M -0.301, G -0.349, K 0.124, E -0.07, F 0.059
C21: A -0.71, F -1.02, P -0.829, V -1.05, D -0.875, R -0.762, G -0.722, T -0.902, M -0.955, Q -0.76, I -0.853, S -0.994, K -0.795, N -0.787, H -0.745, E -0.239, W -1.12, Y -0.871, L -1.07
G16: T -0.432, K -0.143, W -0.906, M -0.579, V -0.842, C -0.985, H -0.831, L -0.7, P -1.18, N -0.186, S -0.279, F -0.556, I -0.74, R -0.424, Q -0.559, E 0.019, A -0.558, D -0.275, Y -0.83
D22: V -0.159, W -0.254, K 0.129, Q -0.067, N -0.085, T 0.074, E -0.055, H -0.02, I -0.399, M -0.26, P -0.095, L -0.067, F 0.005, A 0.032, G -0.011, R -0.058, Y -0.112
C12: H -0.83, W -0.822, Y -0.557, R -0.931, A -0.74, P -1.12, G -0.53, Q -0.928, T -0.769, L -1.11, N -0.663, I -0.73, F -0.896, M -1.19, E -0.124, V -0.7, D -0.749, K -0.607, S -0.971
D14: P -1.02, A -0.068, Q 0.209, V -0.089, W -0.418, Y -0.412, E 0.223, S 0.018, N -0.205, L 0.023, H -0.18, K 0.074, M -0.139, I -0.196, R -0.057, G 0.152, F -0.34, T -0.1
